From patent CN106946990A

Legend:
[1] = target: Myc-GST融合蛋白 (Myc tag fused to glutathione [S-transferase]); test: indirect ELISA on coated Myc-GST (5 μg/mL), HRP anti-His secondary, 30 min at 90℃
[2] = target: Myc-GST融合蛋白 (Myc tag fused to glutathione [S-transferase]); test: indirect ELISA on coated Myc-GST (5 μg/mL), HRP anti-His secondary, 30 min at 80℃
[3] = target: Myc-GST融合蛋白 (Myc tag fused to glutathione [S-transferase]); test: indirect ELISA on coated Myc-GST (5 μg/mL), HRP anti-His secondary, 30 min at 70℃

B1: 针对c-Myc标签的单域重链抗体 (single-domain heavy-chain antibody against the c-Myc tag, SEQ ID NO.:1) (VHH, not shown: small tags and cut ends)
VHH: QLQLVESGGGLVQPGGSLRLSCSASGFAFNLFYMGWVRQAPGKGLEWVADIDNTGDKYYAESVEGRFTVSRDNAKKTLYLQMDSLKSEDTAQYYCLKGGCRETFSLCARGQGTQVTVSS
[1]
  OD450: 1.1 OD450
[2]
  OD450: 1.4 OD450
[3]
  OD450: 1.5 OD450
